Assays:
[1] = biological target: Adenosine A2A receptor (human) (human) (UniProt P29274); test: flow cytometry, control antibody, HEK293-A2a cells (A2a Singlets); Parent Singlets median 230; same picture as FIG. 16O
[2] = biological target: Adenosine A2A receptor (human) (human) (UniProt P29274); test: flow cytometry, control antibody, HEK293-A2a cells (A2a Singlets); Parent Singlets median 230
[3] = biological target: Adenosine A2A receptor (human) (human) (UniProt P29274); test: flow cytometry titration 0.05-100 nM IgG, MFI; grey curve and grey number taken as HEK293-A2a cells, black (ND) as parent cells, no legend on the sheet
[4] = biological target: Adenosine A2A receptor (human) (human) (UniProt P29274); test: flow cytometry titration 0.05-100 nM IgG, MFI; grey curve and grey number taken as HEK293-A2a cells, black (ND) as parent cells; same data as FIG. 17H
[5] = biological target: Adenosine A2A receptor (human) (human) (UniProt P29274); test: cell-based or functional assay

Chain of Adenosine A2A receptor (human) (human) (P29274 whole entry): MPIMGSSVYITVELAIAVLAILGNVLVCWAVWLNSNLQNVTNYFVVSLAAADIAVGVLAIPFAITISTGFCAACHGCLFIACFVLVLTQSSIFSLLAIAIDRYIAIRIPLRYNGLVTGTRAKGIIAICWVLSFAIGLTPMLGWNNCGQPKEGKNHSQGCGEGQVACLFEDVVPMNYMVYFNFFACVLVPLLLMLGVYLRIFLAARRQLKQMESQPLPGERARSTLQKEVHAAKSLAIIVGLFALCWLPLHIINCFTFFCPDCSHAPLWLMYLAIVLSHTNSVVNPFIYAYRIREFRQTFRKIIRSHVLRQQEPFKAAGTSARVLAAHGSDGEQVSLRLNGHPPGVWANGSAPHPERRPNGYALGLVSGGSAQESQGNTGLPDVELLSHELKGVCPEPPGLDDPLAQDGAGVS

Median : RL1-H [1] | Median : RL1-H [2] | EC50 [3] [nM] | EC50 [4] [nM] | Absolute IC50, A2A cAMP antagonist titration [5] | Absolute IC50, LANCE allosteric cAMP assay (titrated IgG, fixed NECA) [5] [nM] | Absolute IC50, cAMP allosteric A2A Perkin Elmer assay [5] [nM] | Substance
7500 | 7500 | 21.7 | 21.7 | – | – | – | Human Adenosine A2aR monoclonal (MAB9497) (antibody)
– | – | – | – | 9.43 | 9.43 | 0.513 | R&D control antibody
